Measured values published in patent US20220288204A1, “DOSAGE AND ADMINISTRATION OF ANTI-ERBB3 (HER3) MONOCLONAL ANTIBODIES TO TREAT TUMORS ASSOCIATED WITH NEUREGULIN 1 (NRG1) GENE FUSIONS” (ELEVATION ONCOLOGY, INC., priority 2021, published 2022).
Entries after “also recorded” stand apart in the source; their conditions may differ.

Legend:
LUAD-0061AS3 PDX tumors = experiment: NSCLC PDX model efficacy (SLC3A2-NRG1); assay type: in vivo, mice
Method: (§1) Characterization of the […] PDX model. H&E staining, TTF-1, and phospho-HER3 IHC (FIG. 5A, left to right). […] (FIG. 5B). Tumor volumes were measured twice weekly and plotted overtime. Results represent the mean±SEM. […] Western blotting was performed twice for each protein and representative immunoblots of phosphorylated (p) and total (t) proteins are shown (FIG. 5C).
(§2) Crushed PDX tumor samples were mixed with Matrigel (50%) and injected into the subcutaneous flank of 6-week-old female NSG (LUAD-0061AS3) or Balb/c nude (OV-10-0050) mice. When tumors reached approximately 100-150 mm3, mice were randomly assigned to groups of 5-8 and treatment was commenced. There were 2 mice per group with bilateral flank tumors for the protein phosphorylation/expression study in the LUAD-0061AS3 PDX model. Drugs were administered once, and then tumors were collected at 2, 24, and 168 hours posttreatment. Afatinib was administered by oral gavage once daily as a suspension (in 0.5% methylcellulose-0.4% Tween-80) on a 5-days-on and 2-days-off schedule. […] Mice were observed daily throughout the treatment period for signs of morbidity and mortality. Tumor length and width and animal weights were measured twice weekly. Tumor volume was calculated using the empirical formula V=length×width 2×0.52. The percentage change in tumor volume of each tumor was calculated using the formula [(V2−V1)/V1)]×100, where V1 is the starting tumor volume and V2 is the final tumor volume.
The 5 mg/kg daily dose of afatinib is equivalent to the human dose of […] daily, which is the maximum approved dose for patients.
The tumor volume as a function of time is illustrated in FIG. 5B, and the AUC computed for each group to facilitate comparison of tumor volume between groups at the last date all groups had surviving animals (day 35) was determined. […] The highest dose of afatinib (15 mg/kg) was also effective at causing regression of six of seven tumors in the.

[1] = tested on: HER2, HER3, AKT, ERK1/2 phosphorylation and BIM in LUAD-0061AS3 PDX tumors; experiment: Western blotting of PDX tumor lysates after single administration; assay type: in vivo, mice
Method: as §1, §2
Protein phosphorylation was then detected by Western blotting of PDX tumor lysates.

HBECp53 cells = experiment: AlamarBlue viability dose-response (growth inhibition); assay type: cell-based, human; details: 96 hours
Method: (§3) Expression of […] (FIG. 1A) or SLC3A2-NRG1 (FIG. 2B) fusions in MDA-MB-175-VII and LUAD-0061AS3 cells, respectively, was determined by RT-PCR. The HBECp53 (NRG1 fusion negative) and HBECp53-SLC3A2-NRG1 cells were used as negative and positive controls, respectively. […] Viability results represent the mean±SEM of 2-5 independent experiments in which each condition was assayed in triplicate determinations. Viability data were analyzed by nonlinear regression and the IC50 values for growth inhibition and the 95% confidence interval were determined with GraphPad Prism 8. […] Results represent the mean±SD for one experiment in which each condition was assayed in duplicate.
(§4) For the time-course experiments, cells were plated at a density of 5,000 (HCC-95) or 10,000 (all others) cells per well in 12-well tissue culture plates, and then treated 24 hours later (time 0) with the respective agents. […] Cells were trypsinized and counted at the relevant time-point shown on the graphs. For dose-response studies, cells were plated at a density of 7,500-10,000 cells in white clear-bottom 96-well plates in a volume of […] complete growth media and […] chemicals added at 10× concentration (to achieve 1× concentration) in a final volume of […]. After 96-hour incubation, […] AlamarBlue cell viability reagent was added to achieve a final concentration of 10%. AlamarBlue is a cell permeable […] dye that is reduced when it enters the mitochondria and emits fluorescence at a different wavelength (Gloeckner H, J. Immunol. Methods 2001; 252:131-8). Fluorescence was measured (excitation, 530 nm and emission, 585 nm) using a […] Spectramax M2 Fluorescence Plate Reader, as described previously (Somwar R, J. Biomol. Screen 2009; 14:1176-84). In each experiment, background fluorescence was determined in cells treated with […] of the 20S proteasome inhibitor, carfilzomib, which is toxic to most cells at high concentrations, and was subtracted from all values. There were 3-4 replicates of each condition. Relative IC50 values and 95% confidence interval values were determined by nonlinear regression analysis using GraphPad Prism 8 software using either a variable slope model or in cases where inhibition was only partial, a three-parameter fit was used. […] Each condition was assayed in triplicate in 2-5 independent experiments.
(§5) Cells expressing NRG1 fusions rely on activation of HER3 for growth and survival. […] The estimated IC50 values obtained for growth inhibition are determined.

MCF-7 cells = experiment: as above; assay type: cell-based, human; details: 96 hours
Method: as §3, §4, §5

MDA-MB-175-VII cells [2] = experiment: as above; assay type: cell-based, human; details: 96 hours
Method: as §3, §4, §5

LUAD-0061AS3 cells = experiment: as above; assay type: cell-based, human; details: 96 hours
Method: as §3, §4, §5

HCC-95 cells = experiment: Time-course growth by cell counting; assay type: cell-based, human; details: lowest antibody concentration
Method: as §3, §4
(§6) In these experiments, the MDA-MB-175 and LUAD-0061AS3 cell lines, isogenic HBECp53 cells ectopically expressing a CD74-NRG1 fusion, and the NRG1-amplified lung cancer cell line, HCC-95 (FIGS. 1E-H) were used. […] Afatinib sensitivity of HCC-95 cells was not examined in this study.

HBECp53-CD74-NRG1 cells = experiment: Time-course growth by cell counting; assay type: cell-based, human; details: highest concentration of seribantumab
Method: as §3, §4, §6

MDA-MB-175-VII cells [3] = experiment: Time-course growth by cell counting; assay type: cell-based, human
Method: as §3, §4, §6

B1: seribantumab: anti-ERBB3 (HER3) fully human monoclonal antibody; heavy and light chains SEQ ID NOs: 12 and 13 (antibody)
heavy: EVQLLESGGGLVQPGGSLRLSCAASGFTFSHYVMAWVRQAPGKGLEWVSSISSSGGWTLYADSVKGRFTISRDNSKNTLYLQMNSLRAEDTAVYYCTRGLKMATIFDYWGQGTLVTVSSASTKGPSVFPLAPCSRSTSESTAALGCLVKDYFPEPVTVSWNSGALTSGVHTFPAVLQSSGLYSLSSVVTVPSSNFGTQTYTCNVDHKPSNTKVDKTVERKCCVECPPCPAPPVAGPSVFLFPPKPKDTLMISRTPEVTCVVVDVSHEDPEVQFNWYVDGVEVHNAKTKPREEQFNSTFRVVSVLTVVHQDWLNGKEYKCKVSNKGLPAPIEKTISKTKGQPREPQVYTLPPSREEMTKNQVSLTCLVKGFYPSDIAVEWESNGQPENNYKTTPPMLDSDGSFFLYSKLTVDKSRWQQGNVFSCSVMHEALHNHYTQKSLSLSPGK
light: QSALTQPASVSGSPGQSITISCTGTSSDVGSYNVVSWYQQHPGKAPKLIIYEVSQRPSGVSNRFSGSKSGNTASLTISGLQTEDEADYYCCSYAGSSIFVIFGGGTKVTVLGQPKAAPSVTLFPPSSEELQANKATLVCLVSDFYPGAVTVAWKADGSPVKVGVETTKPSKQSNNKYAASSYLSLTPEQWKSHRSYSCRVTHEGSTVEKTVAPAECS
- tumors with regression (LUAD-0061AS3 PDX tumors; 0.75 mg seribantumab twice weekly): four of seven
- efficacy compared with afatinib (LUAD-0061AS3 PDX tumors; 1 mg BIW seribantumab vs 15 mg/kg daily afatinib): as effective as the 15 mg/kg daily dose of afatinib; also recorded: as effective as the highest dose of afatinib
- tumors with regression (LUAD-0061AS3 PDX tumors; 1 mg seribantumab twice weekly): six of seven
- maximum tumor reduction (LUAD-0061AS3 PDX tumors; 1 mg seribantumab twice weekly, by day 42): 57.2%±2.6%
- tumor volume (LUAD-0061AS3 PDX tumors; all doses of seribantumab tested (0.6, 0.75, 1 mg twice weekly)): bigger decrease in tumor volume
- tumor regression (LUAD-0061AS3 PDX tumors; dosage lower than that used in human trials): more than 50%
- BIM expression in tumors ([1]; 0.75 and 1 mg seribantumab, by 2 hours): higher levels of BIM than vehicle-treated tumors
- phosphorylation of HER2, HER3, AKT, and ERK1/2 in tumors ([1]; all doses of seribantumab (0.6, 0.75, 1 mg), single administration, 2-hour timepoint): reduced phosphorylation
- BIM expression in tumors ([1]; all doses of seribantumab, 168-hour timepoint): Elevated BIM was present
- BIM expression in tumors ([1]; all doses of seribantumab, after 24 hours): Induction of BIM expression was clearly seen
- HER2 phosphorylation in tumors ([1]; seribantumab higher doses, 168 hours): remained inhibited even after 168 hours
- IC50 (HBECp53 cells; AlamarBlue): 203 µM
- effect on growth (HBECp53 cells; no NRG1 fusion): minimal effect
- IC50 (MCF-7 cells; AlamarBlue): 45.2 µM
- effect on growth (MCF-7 cells; no NRG1 fusion): minimal effect
- IC50 (MDA-MB-175-VII cells [2]; AlamarBlue): 20 nM
- effect on growth (MDA-MB-175-VII cells [2]; dose-response): reduced growth in a dose-dependent manner
- IC50 (LUAD-0061AS3 cells; AlamarBlue): 1400 nM
- effect on growth (LUAD-0061AS3 cells; dose-response): reduced growth in a dose-dependent manner
- cell growth over time (HCC-95 cells): growth completely inhibited
- cell growth over time (HBECp53-CD74-NRG1 cells): almost complete inhibition of growth
- time at which growth was slowed after start of treatment (MDA-MB-175-VII cells [3]; seribantumab 0.1, 1, 10 μmol/L): 24 h
- cell growth over time (MDA-MB-175-VII cells [3]; seribantumab 1 and 10 μmol/L, 12 days): growth was blocked for the entire 12-day period
